Data published in patent US20220408730A1, “PLANT TREATMENT” (INSTITUTO SUPERIOR DE AGRONOMIA, priority 2019, published 2022).
Entries after “also recorded” stand apart in the source; their conditions may differ.

What was measured:
P. cinnamomi = assay: Potted young cork oak inoculated with P. cinnamomi, extension of root lesions; type: in vivo, Quercus suber; conditions: plants sprayed; for root lesion severity: compared with inoculated control
Experimental: In a separate experiment, potted young cork oak plants (Quercus suber) were inoculated with P. cinnamomi and incubated under greenhouse conditions. The plants were sprayed with potassium phosphonate, salicylic acid, Blad and other compounds/extracts under study. The severity of the infection was assessed by quantifying the extension of plant root lesions.

P. chlamydospora = assay: Pruning wound protection under real vineyard conditions, wounds brushed with P. chlamydospora spores; type: in vivo, grapevine; conditions: for fungi re-isolated in vitro from the treated wood: culture-dependent methods
Experimental: In an experiment designed as an attempt to protect pruning wounds from esca fungal infection, a couple of surprising observations were made when immediately after pruning under real vineyard conditions, the fresh wounds were brushed with 50 μl of water (control), or of Blad, the commercial fungicide Switch or copper oxychloride solutions (24 replicates for each treatment), and 24 h, 1 month and 2 months afterwards the pruning wounds were brushed with P. chlamydospora spore suspensions. […] On top of that, the diversity of fungi that could be re-isolated in vitro (using culture-dependent methods) from that wood was also lower. […] This remarks the efficient fungicide activity of the two chemicals on P. chlamyobspora, although this fungus seems to be less affected than other natural endophytes of the grapevine. The applicant's analyses of the mycobiome by metabarcoding using Illumina® next-generation sequencing (NGS) techniques detected only minor changes in some taxa composition and in colonization success of some endophytes in grapevine wood after a single copper application. The copper/systemic fungicides didn't change the mycobiome composition in major ways and didn't even directly advantage the pathogen.

external fungi = assay: Fungicides in vitro on potato dextrose agar Petri dishes; type: cell-based; conditions: PDA plus individual fungicides
grapevine wood mycobiome = assay: Grapevine wood mycobiome composition and networks after fungicide treatments (metabarcoding); type: in vivo, Vitis vinifera cv Cabernet Sauvignon; conditions: foliar application / spray
From the text: Wood samples were carefully collected from grapevine rooted cuttings of Vitis vinifera cv Cabernet Sauvignon grown under greenhouse conditions, which underwent different inoculations and fungicide treatments and their mycobiomes identified by metabarcoding using Illumina® next-generation sequencing (NGS) techniques. The barplots represented in FIG. 2 show the relative abundances of grapevine wood taxa in plants subjected to different fungicide treatments and inoculation types.
FIG. 4 illustrates the effect of fungicide applications on the grapevine wood relative taxa abundance.
In FIG. 4, the differential heat tree matrix depicts the changes in taxa abundance between different fungicide treatments. The size of the individual nodes in the grey cladogram depicts the number of taxa identified at that taxonomic level. The smaller cladograms show pairwise comparisons between each treatment, with the colour illustrating the log2 fold change: a red node indicates a lower abundance of the taxon in the tissue group stated on the abscissa, than in the tissue group stated on the ordinate. A blue node indicates the opposite.
The networks presented in FIG. 5 show how Blad creates a different link among taxa, when compared with control and other fungicides.

[1] = tested on: Phaeomoniella chlamydospora; assay: Relative abundance of P. chlamydospora in wood of potted grapevine cuttings (metabarcoding, greenhouse); type: in vivo, Vitis vinifera cv Cabernet Sauvignon; conditions: for relative abundances (%) of P. chlamydospora: fungicide treatment per column
From the text: Wood samples were carefully collected from grapevine rooted cuttings of Vitis vinifera cv Cabernet Sauvignon grown under greenhouse conditions, which underwent different inoculations and fungicide treatments and their mycobiomes identified by metabarcoding using Illumina® next-generation sequencing (NGS) techniques.
On top, barplots grouped by ‘Inoculation’ type; bottom, barplots grouped by ‘Fungicide’ treatment.
In a subsequent experiment (see also below), potted vines were co-inoculated with P. chlamydospora and a skopobiota (spore suspensions from four fungal species naturally occurring in the grapevine microbiome).
C22 and Aureobasidium pullulans AU86. All fungi were maintained in Petri dishes with vents, on potato dextrose agar medium (Difco™), at 25° C., in the dark.

[2] = Early growth at bud break after application onto pruning wound; type: in vivo, grapevine; conditions: 50 μl onto the pruning wound, one treatment per plant
Experimental: The photos were taken at the same plant a couple of months later, at bud break. Compare with the natural development state of the vineyard in the background. Twenty-four replicates were prepared for each treatment.

Trichoderma gamsii = assay: Root browning and necrotic lesions score in carrot roots; type: in vivo, carrot cv Nantes
Experimental: (§1) Twelve carrot seeds cv Nantes were sown in soil containing the different combinations of SLB described above, as well as in positive and negative controls, for a total of 12 treatments (see below). Four weeks after sowing, six mycelium plugs of Trichoderma gamsii were added to each treatment tests, with the exception of the ‘negative control’.
A combination of factors, in which the presence of Trichoderma gamsii was determinant, induced the presence of root browning and necrotic lesion, as shown in FIG. 32.
Carrot roots of each biological replicate, grown under different treatments, were examined to assess differences in the development of root browning and necrotic lesions.
(§2) Similarly to what described in section ‘Effects on the growth of nine-week-old carrots’, the same skopobiota-loaded bentochar treatments were tested also in combination with a weekly spray of Blad on carrot leaves. The tested Blad concentration was 2 mL Blad per L of water.

[3] = Growth of nine-week-old carrots in soil with skopobiota-loaded bentochar, with or without Blad spray; type: in vivo, carrot cv Nantes
Experimental: as §1
Nine weeks after sowing, carrots were examined for three parameters: (1) above-ground growth, (2) number of fully unfolded leaves, and (3) presence of necrotic lesions or browning in roots.
as §2
The same parameters described in ‘Effects on the growth of nine-week-old carrots’ were assessed.

[4] = With Blad, weekly spray on leaves, 2 mL Blad per L of water

Molecule: O=C(O)c1ccccc1O [salicylic acid, reference compound]
- root lesion severity (P. cinnamomi): lower than the inoculated control

Molecule: [Cl-].[Cu+2].[Cu+2].[OH-].[OH-].[OH-] [copper, copper oxychloride]
- fungi re-isolated in vitro from the treated wood (P. chlamydospora): nothing but P. chlamydospora could be re-isolated
- brown streaking of artificially infected shoots (P. chlamydospora; fresh pruning wounds brushed with 50 μl, then P. chlamydospora spores): darker brown streaking
- contamination of PDA Petri dishes containing the fungicide (external fungi): to a minor extent

Molecule: potassium phosphonate [reference compound]
- root lesion severity (P. cinnamomi): lower than the inoculated control

B1: Blad: 173-residue polypeptide (SEQ ID NO: 4), residues 109-281 of Lupinus β-conglutin precursor; main subunit of the 210 kDa oligomer BCO (protein)
chain: ARGARGGLNARGASNPRTYRHISPHESERSERGLNARGPHEGLNTHRLETYRLYSASNARGASNGLYLYSILEARGVALLEGLARGPHEASPGLNARGTHRASNARGLEGLASNLEGLNASNTYRARGILEVALGLPHEGLNSERLYSPRASNTHRLEILELEPRLYSHISSERASPALAASPTYRVALLEVALVALLEASNGLYARGALATHRILETHRILEVALASNPRASPARGARGGLNALATYRASNLEGLTYRGLYASPALALEARGILEPRALAGLYSERTHRSERTYRILELEASNPRASPASPASNGLNLYSLEARGVALVALLYSLEALAILEPRILEASNASNPRGLYTYRPHETYRASPPHETYRPRSERSERTHRLYSASPGLNGLNSERTYRPHESERGLYPHESERARGASNTHRLEGLALATHRPHEASNTHRARGTYRGLGLILEGLNARGILEILELEGLYASNGLASP
- changes in the grapevine wood mycobiome (grapevine wood mycobiome): created a different network of interactions in the wood mycobiome; also recorded: induced marked changes in the grapevine wood mycobiome
- relative abundances (%) of P. chlamydospora ([1]; NO-INOCULATION, potted rooted grapevine cuttings, greenhouse): 3.78%
- relative abundances (%) of P. chlamydospora ([1]; inoculated with P. chlamydospora + skopobiota at separate locations in the trunk): 1.34%
- relative abundances (%) of P. chlamydospora ([1]; inoculated with P. chlamydospora alone): 6.31%
- relative abundance of P. chlamydospora ([1]; potted vines co-inoculated with P. chlamydospora and a skopobiota (four fungal species)): 1%
- relative abundance of the inoculated pathogen ([1]; potted vines inoculated with P. chlamydospora and sprayed): 6%
- early growth several months after pruning [2]: boost observed in the early growth
- root lesion severity versus non-inoculated control (P. cinnamomi): did not differ significantly from the non-inoculated control
- root lesion severity (P. cinnamomi): only treatment producing excellent results on the infection levels; also recorded: lower than the inoculated control
- root lesion severity (P. cinnamomi; listed as BLAD): lowest lesion severity
- Total score of root symptoms (Trichoderma gamsii; With Blad, weekly spray, 2 mL Blad per L of water): 2
- root symptomatology compared with the positive control (Trichoderma gamsii; in words): strongly reduced the development of root symptoms
- fungi re-isolated in vitro from the treated wood (P. chlamydospora): many other endophytes
- Above-ground growth (% of control) Mean ± SD [3, 4]: 98% ± % of control
- Number of leaves (% of control) Mean ± SD [3, 4]: 108% ± % of control
- number of leaves of carrots ([3]; in words, compared with treatments without Blad): increases the overall number of leaves
- above-ground growth of carrots ([3]; in words, weekly spray with Blad): positively affected
